Measurements taken from publication PMC8809517, “Cofactor-independent RNA editing by a synthetic S-type PPR protein”.

Experiments:
[1] = biological target: T1, GFP-9S library array, motif 4 ND N98A;D124R (synthetic construct, N98A;D124R); experiment: high-throughput RNA pulldown from lysate on Ni-NTA beads; HRP: 50 mM Tris pH 8, 150 mM NaCl, 1 mM beta-mercaptoethanol, 50 ug/ml BSA, 3 ug/ml yeast RNA, 0.5% heparin; ITC and FP: Tris pH 8, 200 mM KCl, 5% glycerol; MST: 50 mM Tris pH 8, 200 mM NaCl, 1 mM DTT, BSA, heparin, 0.05% Tween 20; conditions: tags: N-terminal His-eGFP
T1 chain: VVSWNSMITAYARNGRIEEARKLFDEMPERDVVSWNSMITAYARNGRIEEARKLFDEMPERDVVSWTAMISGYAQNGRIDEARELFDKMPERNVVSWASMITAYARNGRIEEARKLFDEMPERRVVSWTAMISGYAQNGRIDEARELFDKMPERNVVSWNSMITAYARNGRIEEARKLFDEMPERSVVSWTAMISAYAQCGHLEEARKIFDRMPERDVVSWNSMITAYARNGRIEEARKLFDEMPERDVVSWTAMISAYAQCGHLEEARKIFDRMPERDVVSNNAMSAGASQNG

9P-S2 = biological target: T2, 9P-S2 (synthetic construct); experiment: high-throughput RNA pulldown on Ni-NTA beads; HRP: 50 mM Tris pH 8, 150 mM NaCl, 1 mM beta-mercaptoethanol, 50 ug/ml BSA, 3 ug/ml yeast RNA, 0.5% heparin; ITC and FP: Tris pH 8, 200 mM KCl, 5% glycerol; MST: 50 mM Tris pH 8, 200 mM NaCl, 1 mM DTT, BSA, heparin, 0.05% Tween 20; conditions: protein: recombinant; tags: N-terminal TRX-His; label: 5' Cy5
T2 chain: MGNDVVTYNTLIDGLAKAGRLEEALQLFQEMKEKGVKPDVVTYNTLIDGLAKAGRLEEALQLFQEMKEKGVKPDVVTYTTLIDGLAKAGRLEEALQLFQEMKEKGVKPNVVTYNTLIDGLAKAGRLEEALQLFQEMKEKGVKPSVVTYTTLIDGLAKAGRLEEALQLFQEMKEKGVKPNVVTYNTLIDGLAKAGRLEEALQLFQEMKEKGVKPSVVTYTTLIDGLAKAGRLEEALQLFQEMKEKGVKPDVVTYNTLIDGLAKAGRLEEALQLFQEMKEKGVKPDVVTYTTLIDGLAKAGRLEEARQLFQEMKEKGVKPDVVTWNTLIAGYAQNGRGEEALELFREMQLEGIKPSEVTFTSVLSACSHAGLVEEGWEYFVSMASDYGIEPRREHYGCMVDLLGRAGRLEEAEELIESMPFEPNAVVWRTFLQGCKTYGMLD

9S-S2 PPR = biological target: T3, 9S-S2 PPR (synthetic construct); experiment: as above; conditions: protein: recombinant; tags: N-terminal TRX-His; label: 5' Cy5
T3 chain: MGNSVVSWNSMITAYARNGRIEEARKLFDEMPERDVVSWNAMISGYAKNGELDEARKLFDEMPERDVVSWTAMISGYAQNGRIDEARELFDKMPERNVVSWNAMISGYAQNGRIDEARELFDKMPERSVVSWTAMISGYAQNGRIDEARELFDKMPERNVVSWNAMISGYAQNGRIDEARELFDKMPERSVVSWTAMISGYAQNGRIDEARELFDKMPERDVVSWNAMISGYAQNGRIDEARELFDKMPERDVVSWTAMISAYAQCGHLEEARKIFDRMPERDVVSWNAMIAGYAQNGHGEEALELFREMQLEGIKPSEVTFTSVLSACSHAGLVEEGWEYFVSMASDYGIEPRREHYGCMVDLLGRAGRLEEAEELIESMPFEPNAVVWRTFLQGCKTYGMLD

9S = biological target: T4, 9S (synthetic construct); experiment: as above; conditions: protein: recombinant; tags: N-terminal His-eGFP; label: 5' Cy5
T4 chain: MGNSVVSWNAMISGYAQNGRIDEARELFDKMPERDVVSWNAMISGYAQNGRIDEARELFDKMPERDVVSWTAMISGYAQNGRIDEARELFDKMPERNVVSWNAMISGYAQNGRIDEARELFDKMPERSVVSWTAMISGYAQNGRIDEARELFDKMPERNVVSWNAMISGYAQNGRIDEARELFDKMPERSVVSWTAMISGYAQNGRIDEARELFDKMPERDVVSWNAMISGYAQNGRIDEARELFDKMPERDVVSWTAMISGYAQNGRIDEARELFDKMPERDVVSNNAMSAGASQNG

9S-E2 = biological target: T5, 9S-E2 (synthetic construct); experiment: microscale thermophoresis; HRP: 50 mM Tris pH 8, 150 mM NaCl, 1 mM beta-mercaptoethanol, 50 ug/ml BSA, 3 ug/ml yeast RNA, 0.5% heparin; ITC and FP: Tris pH 8, 200 mM KCl, 5% glycerol; MST: 50 mM Tris pH 8, 200 mM NaCl, 1 mM DTT, BSA, heparin, 0.05% Tween 20; conditions: protein: recombinant; tags: N-terminal TRX-His; label: 5' Cy5
T5 chain: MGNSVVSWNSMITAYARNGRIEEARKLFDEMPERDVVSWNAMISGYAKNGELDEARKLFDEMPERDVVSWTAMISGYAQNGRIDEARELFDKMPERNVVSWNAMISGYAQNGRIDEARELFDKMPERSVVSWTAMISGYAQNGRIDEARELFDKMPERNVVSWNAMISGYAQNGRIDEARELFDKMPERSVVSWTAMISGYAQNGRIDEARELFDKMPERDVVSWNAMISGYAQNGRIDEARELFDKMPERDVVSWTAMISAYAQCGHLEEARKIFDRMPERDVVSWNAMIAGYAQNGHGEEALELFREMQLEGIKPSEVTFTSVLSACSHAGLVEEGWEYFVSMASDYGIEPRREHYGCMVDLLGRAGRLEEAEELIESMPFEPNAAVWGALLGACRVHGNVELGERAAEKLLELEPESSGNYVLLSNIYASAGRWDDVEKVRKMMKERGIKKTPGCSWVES

AUUACACGUGA (ssRNA) [Cy5-rpoA]
Kd ([1]; label: 5' Cy5): 178 nM
Kd (9P-S2): 68 nM
Kd (9S-S2 PPR): 6.4 nM
Kd (9S): 12 nM
Kd (9S-E2): 6.8 nM

AUUAGACGUGA (ssRNA) [Cy5-rpoA-G]
Kd ([1]; label: 5' Cy5): 166 nM

AUUAAACGUGA (ssRNA) [IR-rpoA-A]
Kd ([1]; label: 5' IRDye 800CW): 254 nM

AUUAUACGUGA (ssRNA) [IR-rpoA-U]
Kd ([1]; label: 5' IRDye 800CW): 160 nM
